# Results from article PMC8861115, “Characterization and structural analyses of a novel glycosyltransferase acting on the β-1,2-glucosidic linkages” (The Journal of Biological Chemistry, 2022).
# B1: IaSGT (IALB_1185) (Ignavibacterium album JCM 16511) (protein)
# chain: MKPHNSEKYFVKNGQPHFLISGEVHYFRINPKLWRNHLQLLKQTGADTVSTYIPWDWHEIEEDDFDFEGKTHPARNLIRFIKLCKEENLDLIVKPGPYILAEYENQGLPSWLLKKLSKNAFALDENGNVISPDLVSYLSDEFLEYTFKWYDKVMPIISKHQKEHYGPITMMQLCNEIGVFQWLSGKSDYNPKVINLYKEFIIQRYKTIEKLNSVYSTNYNSFDDLKAPSGKIKLRSDYCAYFDFHLFFREYYNKYISILKNKIRSFGINIKLTHNIPGWIYGNASELPMLISTYSEIMKNHPDIIFGLDHIPEFVSFRNAHSDLACNKILEAMQPEAPVWAAEFQAGTREHHVKAYAKDLETFYIASLAHGIKGFNYYMFSQGINPEGKGFYGKTFYFQTALDAASNKLALYDSIKKVNRFIRKEQKDLLRTNVNSEICVGFYKPYFFTELISSQLLKEKKLNVEELGLYIDPRFLREEILFNGLLRGLQTLNYNYDVVDLENCDLKSLTAYKQLWITSAEFMDAETQNLLSEFVLNGGNLILYPAVPTLDNYLNRCEILKNNFGIEFITKDSSHKVSAFGIEDVFTAFSKKQIYNDTNSKPIAFTQENEICGIRKKIGKGELTILGFAFGYTSDEHLELIDKLVKLNKIKRELFVSDKDIQFVVRENNKSRYIFFLNYHNERKTFNYRKSSELKKKKSEEISIAPFSYKVIKENK
# notes: full length (no N-terminal signal peptide), his6-tag fusion from pET30a(+) NdeI/XhoI, E. coli BL21(DE3); homodimer
# How the values were obtained:
# Conditions in all cases: acceptor, donor Sop2 fixed 1 mM, pH 5.0, 37 °C
# purified protein [1] = substrate: O=[N+]([O-])c1ccc(O[C@@H]2O[C@H](CO)[C@@H](O)[C@H](O)[C@H]2O)cc1; experiment: purified protein
# purified protein [2] = substrate: O=[N+]([O-])c1ccc(O[C@H]2O[C@H](CO)[C@@H](O)[C@H](O)[C@H]2O)cc1; experiment: purified protein
# [3] = substrate: CO[C@@H]1O[C@H](CO)[C@@H](O)[C@H](O)[C@H]1O; experiment: hexokinase/G6PDH thio-NAD+ coupled glucose release; format: biochemical, Ignavibacterium album
# Source text: (§1) hexokinase/G6PDH thio-NAD+ coupled glucose release on IaSGT (IALB_1185)
# [4] = substrate: OC[C@H]1O[C@H](OCc2ccccc2)[C@H](O)[C@@H](O)[C@@H]1O; experiment: hexokinase/G6PDH thio-NAD+ coupled glucose release; format: biochemical, Ignavibacterium album
# Source text: as §1
# [5] = substrate: CO[C@H]1O[C@H](CO)[C@@H](O)[C@H](O)[C@H]1O; experiment: hexokinase/G6PDH thio-NAD+ coupled glucose release; format: biochemical, Ignavibacterium album
# Source text: as §1
# [6] = substrate: OC[C@H]1O[C@H](Oc2ccccc2)[C@H](O)[C@@H](O)[C@@H]1O; experiment: hexokinase/G6PDH thio-NAD+ coupled glucose release; format: biochemical, Ignavibacterium album
# Source text: as §1
# [7] = substrate: CCO[C@H]1O[C@H](CO)[C@@H](O)[C@H](O)[C@H]1O; experiment: hexokinase/G6PDH thio-NAD+ coupled glucose release; format: biochemical, Ignavibacterium album
# Source text: as §1
# [8] = substrate: OCc1ccccc1O[C@@H]1O[C@H](CO)[C@@H](O)[C@H](O)[C@H]1O; experiment: hexokinase/G6PDH thio-NAD+ coupled glucose release; format: biochemical, Ignavibacterium album
# Source text: as §1
# [9] = substrate: OCc1ccc(O[C@@H]2O[C@H](CO)[C@@H](O)[C@H](O)[C@H]2O)cc1; experiment: hexokinase/G6PDH thio-NAD+ coupled glucose release; format: biochemical, Ignavibacterium album
# Source text: as §1
# [10] = substrate: OC[C@H]1O[C@H](Oc2ccc3ccccc3c2)[C@H](O)[C@@H](O)[C@@H]1O; experiment: hexokinase/G6PDH thio-NAD+ coupled glucose release; format: biochemical, Ignavibacterium album
# Source text: as §1
# [11] = substrate: OC[C@H]1O[C@@H](Oc2ccc(O)cc2)[C@H](O)[C@@H](O)[C@@H]1O; experiment: hexokinase/G6PDH thio-NAD+ coupled glucose release; format: biochemical, Ignavibacterium album
# Source text: as §1
# [12] = substrate: O=c1ccc2cc(O[C@@H]3O[C@H](CO)[C@@H](O)[C@H](O)[C@H]3O)c(O)cc2o1; experiment: hexokinase/G6PDH thio-NAD+ coupled glucose release; format: biochemical, Ignavibacterium album
# Source text: as §1
# [13] = substrate: OC[C@H]1O[C@H](Oc2ccc(O)cc2)[C@H](O)[C@@H](O)[C@@H]1O; experiment: hexokinase/G6PDH thio-NAD+ coupled glucose release; format: biochemical, Ignavibacterium album
# Source text: as §1
protein,measurement,setting,value
B1,Km,purified protein [1],0.040 ± 0.004 mM
same,kcat,purified protein [1],0.46 s⁻¹
same,kcat/Km,purified protein [1],12000 M⁻¹ s⁻¹
same,Km,purified protein [2],0.13 ± 0.02 mM
same,kcat,purified protein [2],5 s⁻¹
same,kcat/Km,purified protein [2],39000 M⁻¹ s⁻¹
same,Km,[3],0.13 ± 0.03 mM
same,kcat,[3],1.9 ± 0.2 s⁻¹
same,kcat/Km,[3],14000 ± 2000 M⁻¹ s⁻¹
same,Km,[4],0.096 ± 0.011 mM
same,kcat,[4],0.86 ± 0.05 s⁻¹
same,kcat/Km,[4],9000 ± 700 M⁻¹ s⁻¹
same,Km,[5],0.20 ± 0.03 mM
same,kcat,[5],1 ± 0.1 s⁻¹
same,kcat/Km,[5],4900 ± 400 M⁻¹ s⁻¹
same,Km,[6],0.22 ± 0.03 mM
same,kcat,[6],1.8 ± 0.2 s⁻¹
same,kcat/Km,[6],8100 ± 600 M⁻¹ s⁻¹
same,Km,[7],0.044 ± 0.005 mM
same,kcat,[7],0.55 ± 0.02 s⁻¹
same,kcat/Km,[7],13000 ± 1000 M⁻¹ s⁻¹
same,Km,[8],0.021 ± 0.003 mM
same,kcat,[8],0.88 ± 0.03 s⁻¹
same,kcat/Km,[8],43000 ± 1000 M⁻¹ s⁻¹
same,Km,[9],0.042 ± 0.004 mM
same,kcat,[9],0.49 ± 0.02 s⁻¹
same,kcat/Km,[9],12000 ± 1000 M⁻¹ s⁻¹
same,Km,[10],0.15 ± 0.03 mM
same,kcat,[10],3.9 ± 0.3 s⁻¹
same,kcat/Km,[10],26000 ± 3000 M⁻¹ s⁻¹
same,Km,[11],0.026 ± 0.003 mM
same,kcat,[11],1.4 ± 0.1 s⁻¹
same,kcat/Km,[11],55000 ± 5000 M⁻¹ s⁻¹
same,Km,[12],0.045 ± 0.006 mM
same,kcat,[12],1.3 ± 0.1 s⁻¹
same,kcat/Km,[12],29000 ± 1000 M⁻¹ s⁻¹
same,Km,[13],0.38 ± 0.05 mM
same,kcat,[13],8.7 ± 0.6 s⁻¹
same,kcat/Km,[13],23000 ± 2000 M⁻¹ s⁻¹
